Measured values taken from patent publication US20240376186A1 (published 2024).

B1: EWEµH (other)
chain: EWEQVQLVETGGGLVQAGGSLRLSCAASGSIFSINAMGWFRQAPGKEREFVATINRSGGRTYYADSVKGRFTISRDNGKNMVYLQMHSLKPEDTAIYYCAAGTGWSPQTDNEYNYWGQGTQVTVSSGGGGSGGGGSGGGGSGGGGSRPCGHPGDTPFGTFTLTGGNVFEYGVKAVYTCNEGYQLLGEINYRECDTDGWTNDIPICEVVKCLPVTAPENGKIVSSAMEPDREYHFGQAVRFVCNSGYKIEGDEEMHCSDDGFWSKEKPKCVEISCKSPDVINGSPISQKIIYKENERFQYKCNMGYEYSERGDAVCTESGWRPLPSCEEAGGGGGGGGGGGGGKCGPPPPIDNGDITSFPLSVYAPASSVEYQCQNLYQLEGNKRITCRNGQWSEPPKCLHPCVISREIMENYNIALRWTAKQKLYSRTGESVEFVCKRGYRLSSRSHTLRTTCWDGKLEYPTCAKRENLYFQG
B2: EWE-hC3Nb1 (VHH)
VHH: QVQLVETGGGLVQAGGSLRLSCAASGSIFSINAMGWFRQAPGKEREFVATINRSGGRTYYADSVKGRFTISRDNGKNMVYLQMHSLKPEDTAIYYCAAGTGWSPQTDNEYNYWGQGTQVTVSS
B3: EWEnH (other)
chain: EWEQVQLVETGGGLVQAGGSLRLSCAASGSIFSINAMGWFRQAPGKEREFVATINRSGGRTYYADSVKGRFTISRDNGKNMVYLQMHSLKPEDTAIYYCAAGTGWSPQTDNEYNYWGQGTQVTVSSGGGGSGGGGSGGGGSGGGGSRPCGHPGDTPFGTFTLTGGNVFEYGVKAVYTCNEGYQLLGEINYRECDTDGWTNDIPICEVVKCLPVTAPENGKIVSSAMEPDREYHFGQAVRFVCNSGYKIEGDEEMHCSDDGFWSKEKPKCVEISCKSPDVINGSPISQKIIYKENERFQYKCNMGYEYSERGDAVCTESGWRPLPSCEEA

target: C3b (UniProt P01024 23-667; P01024 749-1663); experiment: BLI
Sequence (P01024 23-667, chain 1 of 2): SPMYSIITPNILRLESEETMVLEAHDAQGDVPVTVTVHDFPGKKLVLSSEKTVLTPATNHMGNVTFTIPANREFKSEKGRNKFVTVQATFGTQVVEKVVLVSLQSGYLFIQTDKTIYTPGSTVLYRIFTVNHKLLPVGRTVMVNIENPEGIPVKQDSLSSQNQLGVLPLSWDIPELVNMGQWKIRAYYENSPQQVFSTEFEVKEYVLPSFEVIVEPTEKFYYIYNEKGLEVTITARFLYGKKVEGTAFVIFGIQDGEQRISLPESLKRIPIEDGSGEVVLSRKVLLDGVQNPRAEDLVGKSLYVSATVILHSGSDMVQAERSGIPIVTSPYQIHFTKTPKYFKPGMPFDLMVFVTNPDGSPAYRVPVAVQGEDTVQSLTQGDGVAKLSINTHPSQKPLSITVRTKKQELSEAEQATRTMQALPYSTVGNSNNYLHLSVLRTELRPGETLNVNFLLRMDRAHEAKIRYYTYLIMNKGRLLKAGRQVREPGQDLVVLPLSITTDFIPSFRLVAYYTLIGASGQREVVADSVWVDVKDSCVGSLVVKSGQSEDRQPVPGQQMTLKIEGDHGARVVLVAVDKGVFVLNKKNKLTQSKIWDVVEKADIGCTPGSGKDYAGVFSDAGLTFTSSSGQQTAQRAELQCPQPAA
Sequence (P01024 749-1663, chain 2 of 2): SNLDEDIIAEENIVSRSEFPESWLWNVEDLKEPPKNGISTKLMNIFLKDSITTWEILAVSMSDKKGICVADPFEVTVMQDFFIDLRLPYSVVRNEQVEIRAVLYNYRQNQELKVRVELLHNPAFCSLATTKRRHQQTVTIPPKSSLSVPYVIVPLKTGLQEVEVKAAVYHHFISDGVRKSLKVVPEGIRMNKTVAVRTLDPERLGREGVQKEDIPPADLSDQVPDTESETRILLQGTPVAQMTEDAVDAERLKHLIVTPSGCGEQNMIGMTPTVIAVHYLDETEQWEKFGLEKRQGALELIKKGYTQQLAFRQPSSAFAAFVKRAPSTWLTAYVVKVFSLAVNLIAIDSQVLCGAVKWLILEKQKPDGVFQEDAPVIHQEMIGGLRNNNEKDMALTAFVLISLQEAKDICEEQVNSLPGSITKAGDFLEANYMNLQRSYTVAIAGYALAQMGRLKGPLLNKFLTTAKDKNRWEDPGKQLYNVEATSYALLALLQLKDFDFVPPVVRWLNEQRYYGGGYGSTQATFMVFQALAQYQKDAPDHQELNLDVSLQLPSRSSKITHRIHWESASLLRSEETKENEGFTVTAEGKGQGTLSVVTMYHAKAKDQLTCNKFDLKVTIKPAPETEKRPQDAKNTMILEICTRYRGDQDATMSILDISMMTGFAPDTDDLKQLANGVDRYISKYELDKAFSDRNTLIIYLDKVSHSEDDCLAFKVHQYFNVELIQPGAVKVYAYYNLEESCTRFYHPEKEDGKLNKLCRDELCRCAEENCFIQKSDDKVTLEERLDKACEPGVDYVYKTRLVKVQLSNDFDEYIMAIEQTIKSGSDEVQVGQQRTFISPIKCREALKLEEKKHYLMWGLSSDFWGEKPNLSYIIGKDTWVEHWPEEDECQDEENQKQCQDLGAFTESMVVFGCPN

Row | Kd [nM] | Binder
1 | 0.4 | B1
2 | 3 | B2
3 | 7.1 | B3
